These results are taken from patent publication US6767720 (VLAAMS INTERUNIVERSITAIR INSTITUUT VOOR BIOTECHNOLOGIE VZW, dated 2004).

Experiment [1] has as its target T1, human αE-catenin fused to the GAL4-DBD (plasmid pGBT9αECTN) (human, UniProt P04386 1-147; P35221 1-906, limits assumed).
T1 construct: also called full-length αE-catenin
Description: yeast two-hybrid, strain Y190, HIS3 and LacZ reporters (FIG. 11).
Description: The plates contained the medium composition indicated at the left completed with 40 mM 3-AT and 80 mg/ml X-gal. GAL4-AD=GAL4 transcription activation domain; GAL4-DBD=GAL4 DNA-binding domain; −LT=SD medium lacking Leu and Trp; −LTH=SD medium lacking Leu, Trp and His. pVA3 and pTD1 are plasmids used as a positive control in the two-hybrid system (Matchmaker™, Clontech).

Experiment [2] deals with T2, ANC-2H01 initial two-hybrid clone (part of ANC-2H01 fused to the GAL4-AD, plasmid pGAD10ANC2H01) (human, UniProt Q9UID6 27-485).
T2 construct: 27-485 is derived from 459 of 485 residues; also called ANC-2H01 clone; initial ANC-2H01 two-hybrid clone
T2 sequence: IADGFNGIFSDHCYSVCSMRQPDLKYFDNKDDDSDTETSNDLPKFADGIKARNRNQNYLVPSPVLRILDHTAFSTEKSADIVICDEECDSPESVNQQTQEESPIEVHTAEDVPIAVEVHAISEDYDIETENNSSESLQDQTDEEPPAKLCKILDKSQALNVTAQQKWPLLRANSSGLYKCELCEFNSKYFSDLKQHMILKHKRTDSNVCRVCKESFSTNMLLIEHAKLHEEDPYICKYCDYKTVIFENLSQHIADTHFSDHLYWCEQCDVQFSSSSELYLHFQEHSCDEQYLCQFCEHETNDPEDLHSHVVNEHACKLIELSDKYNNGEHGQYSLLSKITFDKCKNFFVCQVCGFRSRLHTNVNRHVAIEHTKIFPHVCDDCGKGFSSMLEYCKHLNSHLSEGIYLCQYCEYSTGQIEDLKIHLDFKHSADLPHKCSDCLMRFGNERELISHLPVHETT
Description: yeast two-hybrid, strain HF7c, HIS3 and LacZ reporters.
Description: The HF7c yeast strain carries two reporter genes, HIS3 and LacZ, both integrated into the yeast genome and under the control of GAL4 responsive elements, respectively, the GAL1 UAS and the UAS_G-17mer. It has also two auxotrophic markers, trp1 and leu2, which are used for plasmid selection upon transformation. Yeast cultures were grown at 30° C. in either complete YPD medium (1% yeast extract, 2% peptone and 2% glucose) or in SD minimal medium (0.5% yeast nitrogen base without amino acids, 2% glucose, and 1% of the appropriate amino acid drop out solution).
The isolated two-hybrid clone was retransformed into the HF7c strain.

B1: about full-length ANC-2H01 fused to the GAL4-AD (plasmid pGAD424ANC-2H01-FL) (other, not shown: large carriers)
chain: MNEYPKKRKRKTLHPSRYSDSSGISRIADGFNGIFSDHCYSVCSMRQPDLKYFDNKDDDSDTETSNDLPKFADGIKARNRNQNYLVPSPVLRILDHTAFSTEKSADIVICDEECDSPESVNQQTQEESPIEVHTAEDVPIAVEVHAISEDYDIETENNSSESLQDQTDEEPPAKLCKILDKSQALNVTAQQKWPLLRANSSGLYKCELCEFNSKYFSDLKQHMILKHKRTDSNVCRVCKESFSTNMLLIEHAKLHEEDPYICKYCDYKTVIFENLSQHIADTHFSDHLYWCEQCDVQFSSSSELYLHFQEHSCDEQYLCQFCEHETNDPEDLHSHVVNEHACKLIELSDKYNNGEHGQYSLLSKITFDKCKNFFVCQVCGFRSRLHTNVNRHVAIEHTKIFPHVCDDCGKGFSSMLEYCKHLNSHLSEGIYLCQYCEYSTGQIEDLKIHLDFKHSADLPHKCSDCLMRFGNERELISHLPVHETT
As for B1, the binding result in experiment [1] is recorded as “no binding”.

B2: lamin C fused to the GAL4 DNA binding domain (plasmid pLAM5′) (other, UniProt P04386 1-147, looked up)
chain: MKLLSSIEQACDICRLKKLKCSKEKPKCAKCLKNNWECRYSPKTKRSPLTRAHLTEVESRLERLEQLFLLIFPREDLDMILKMDSLQDIKALLTGLFVQDNVNKDAVTDRLASVETDMPLTLRQHRISATSSSEESSNKGQRQLTVSSEEVVSREVSGIKAAYEAELGDARKTLDSVAKERARLQLELSKVREEFKELKARNTKKEGDLIAAQARLKDLEALLNSKEAALSTALSEKRTLEGELHDLRGQVAKLEAALGEAKKQLQDEMLRRVDAENRLQTMKEELDFQKNIYSEELRETKRRHETRLVEID
notes: Irrelevant control protein
Regarding B2, in experiment [2], the binding result is “no binding”.
